The data set is described as follows: yeast display, Sf9 membrane polyspecificity reagent, FACS + sequencing; frameworks hold sequencing errors. The procedure, abridged: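 Sorting gates, low and high (top ~1%), were placed on anti-HA fluorescence to track expression and on streptavidin fluorescence to track reagent binding. A clone's polyreactivity label is taken from the gate it came out of. The reagent was 10% biotinylated, detergent-solubilized Sf9 membrane, applied for 1 hour at 4 °C to galactose-induced yeast display cells.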
For the sequence “QVHLVESGGGLVQAGGSLRLSCAASGSTFFLYAMGWYRQAPGKERELVAAISSGGSTYYADSVKGRFTISRDNAKNTVYLQMTRLKPEDTAVYYCARDRIDTTDRTWRGDYWGQGTQATVSS”, the “polyreactivity (PSR sort gate)” value is listed as “low polyreactivity”.

In the case of “QVHLVESGGGLVQAGGSLRLSCAASGSTFGLKAMGWYRQAPGKEREFVASINFNDGSTYYADSVKGRFTISRDNAKNTVYLQMNSLKPEDPAVYYCAVELWWKWPFYYWGQGTQVTVSS”, the “polyreactivity (PSR sort gate)” value was “high polyreactivity”.

As for “QVHLVESGGGLVQAGGSLRLSCAASGSTFLPNAMGWYRQAPGKERELVAAITNGGGTNYADSVKGRFTISRDNAKNTVYLQMYSLKPEDTAVYYCNADSTYFGGHDYWGPGTQVTVSS”, the “polyreactivity (PSR sort gate)” value is recorded as “low polyreactivity”.

“QVHLVESGGGLVQAGGSLRLSCAASGSTFNYNAMGWYRQAPGKERELVAAISGSGGSTYYADSVKGRFTISRDNAKNSVYLQMNSLKPEDTAVDYCAGLYGPGRAFDYWGQGTQVTVSS”: the “polyreactivity (PSR sort gate)” value was “low polyreactivity”.

Turning to “QVHLVESGGGLVQAGGSLRLSCAASGSTFSIYAMGWYRQAPGKERELVAAINSGGDTNYADSVKGRFTISRDNAKNTVYLQMNSLKPEDTAVYYCAKQVYTSRRSRGRYGFGYWGQGTQVTVSS”, the “polyreactivity (PSR sort gate)” value was “high polyreactivity”.

Consider “QVHLVESGGGLVQAGGSLRLSCAASGSTFTLNTMGWYRQAPGKERELVAGIRSGGSTYYADSVKGRFTISRDNAKNTVYLQMNSLKPEDTAVYYCAADRRWFAYWFDYWGQGTQVTVSS”, for which the “polyreactivity (PSR sort gate)” value is given as “low polyreactivity”.

In the case of “QVHLVESGGGLVQAGGSLRLSCAASGSTFTPYAMGWYRQAPGKERELVAAITWRTGSTRYADSVKGRFTISRDNAKNTVYLQMNSLKPEDTAVYYCAAKVPRFGAPGVNYWGQGTQVTVSS”, the “polyreactivity (PSR sort gate)” value is “high polyreactivity”.

“QVHLVESGGGLVQAGGSLRLSCAASGSTFTYNTMGWYRQAPGKERELVAAITWSGGRTYYADSVKGRFTISRDNAKNTVYLQMNSLKPEDTAVYYCNADSSGVTSAYDYWGQGTQVTVSS”: the “polyreactivity (PSR sort gate)” value is “high polyreactivity”.

As for “QVHLVESGGGLVQAGGSLRLSCAASGSTFTYYAMGWYRQAPGKERELVAAITGRGGRTYYADSVKGRFTISRDNAKNTVYLQMNSLKPEDTAVYYCARYPSSDTYWTKYDYWGQGTQVTVSS”, the “polyreactivity (PSR sort gate)” value is “high polyreactivity”.

Regarding “QVHLVESGGGLVQAGGSLRLSCAASGSTFTYYDMVWYRKAPGNETELLATIDSTTRTYYADSVKGRFTISRDNAKNTVSLQMNSLKPEETAVYYCAADLTWAYFYYLFYRYDYWGQGTQVTVSS”, the “polyreactivity (PSR sort gate)” value is “low polyreactivity”.

Consider “QVHLVESGGGLVQAGGSLRLSCAASGSTFYRYAMGWYRQAPGKEREFVAAISTRGGSTHYADSVKGRFTISRDNAKNTVYLQMNSLKPEDTAVSYCNARGYYSVPSNTGIRYYRFDYWGQGTQVTVSS”, for which the “polyreactivity (PSR sort gate)” value was “low polyreactivity”.

“QVHLVESGGGLVQAGGSLRLSCAASGSTLYDNAMGWYRQAPGKERELVAAITRRGAGTYYADSVKGRFTISRDNAKNTVYLQMNSLKPEDTAVYYCNAGRPYFVRYYYWGHGTQVTVSS”: the “polyreactivity (PSR sort gate)” value is listed as “high polyreactivity”.

Consider “QVHLVESGGGLVQAGGSLRLSCAASGYTFLANAMGWYSQAPGKERELVAAISSGGTTYYADSVKGRFTISRDNAKNTVYLQMNSLKPEDTAVYYCATVFRDYDFNHWGQGTQVTVSS”, for which the “polyreactivity (PSR sort gate)” value is on record as “low polyreactivity”.

In the case of “QVHLVESGGGLVQAGGSLRLSCAASRSTFVNYAMGWYRQAPGKERELVAGISRSGGSTYYADSVKGRFTISRDNAKNTVYLQMNSLKPDDTAVYYCAKRYGRLTRYDYWGQGTQVNVSS”, the “polyreactivity (PSR sort gate)” value is reported as “high polyreactivity”.

As for “QVHLVESGGGLVQAGGSLRLSCAASVFTFNSNAMGWYRQAPGKERELVAAISWSGGSTYYADSVKGRFTISRDNAKNTVYLLMNSLKPEDTAVYYCAKGYRRVYGPFYYWGQGTQLTVSS”, the “polyreactivity (PSR sort gate)” value is recorded as “low polyreactivity”.

With “QVHLVESGGGLVQAGGSLRLSCAATGSTFSNYAMGWNRQAPGKERELVASISNGGSTNYADSVKGRFTISRDNANNTVYLQMNSLKPVDTEVYFCIAESKAKYDYWGQGTQVSVSS”, the “polyreactivity (PSR sort gate)” value is listed as “low polyreactivity”.

“QVHLVESGGGLVQAGGSLRLSCAATGSTFTINAMGWYRQAPGKERELVAAINDGDDTYYADSVKGRFTISRDNAKNTVYLQMNSLKPEDTAVYFCAADIIYGYEVYTYTSDYWGQGTQVTVSS”: the “polyreactivity (PSR sort gate)” value is given as “low polyreactivity”.

As for “QVHLVESGGGLVQAGGSLRLSCADSGTTFHKYAMGWYRQAPGTERELVARISVGGDSTYYADSVKGRFTISRDNAKNTDYLQIISLKPEDTAVYYCAKVRYLVFLYPPRYYYWGQGTEVTVSS”, the “polyreactivity (PSR sort gate)” value is “low polyreactivity”.

In the case of “QVHLVESGGGLVQAGGSLRLSCASSGSIFGPYVMGWYRQAPRKERELVAAITWNGGSTNYADSLKGRFTISRDNAKNTVYLQMNSLKPEETAVYYCNTVSWPLSSKYYYWGQGTQVSVSS”, the “polyreactivity (PSR sort gate)” value is “high polyreactivity”.

On to “QVHLVESGGGLVQAGGSLRLSCPASGLTFYRYAMGLYRPAPGKERELVAAISSGGNTYYADSVKGRFTISRDNAKNTVYLQMNSMKPEDTAVYYCAAESYALRGHPGYYYWGQGSQVTVSS”, for which the “polyreactivity (PSR sort gate)” value is “high polyreactivity”.

Turning to “QVHLVESGGGLVQAGGSLRLSFAASGRTFRGNDMGWYRQAPGKERELVATITRNGGSTRYADSVKGRFTISRDNAKNNVYLQMNSLKPEDSAVYYCNARSRYFGYDYWGQGTQVTVSS”, the “polyreactivity (PSR sort gate)” value is reported as “high polyreactivity”.

With “QVHLVESGGGLVQAGGSLRLSFAAYGSIFIQYVMGWYRQAPGKERELVAAISRRGGSTYYADSVKGRFTISRDNAKNTVYLHMNSLKPEDTAVYYCAAGSAYSIGYYWGQGTQVTVSS”, the “polyreactivity (PSR sort gate)” value is listed as “high polyreactivity”.

Turning to “QVHLVESGGGLVQAGGSLRLSSAASGRNFFNYAMGWYRQAPGKERELVAAISTGGSTTYADSVKGRFTISRDNAKNTVYLQMNSLKPEDTAVYYCARRGRRYRQYSRYYYWGQGTQVTVSS”, the “polyreactivity (PSR sort gate)” value is “high polyreactivity”.

Take “QVHLVESGGGLVQAGGSLRLSSAASGSIFDSNAMGWYRQAPGKERELVAAINSTDITKYADSVKGRFTISRDNAKNTVYLQMNSLKPEDTAVYYCAKDQSLTYSSLWGYDYWGQGTQVTVSS”: the “polyreactivity (PSR sort gate)” value is recorded as “low polyreactivity”.

As for “QVHLVESGGGLVQAGGSLRLSSAASGSTFDYYAMGWYRQAPGKERELVAAISVGGGGTTYADSVKGRFTISRDNAKNTVYFQMNCLNPEDTAVYYCAARYRTRKRPGSKYYYWGQGTQVTVSS”, the “polyreactivity (PSR sort gate)” value is recorded as “high polyreactivity”.

For “QVHLVESGGGLVQAGGSLRLTCAASGSIFTVYALGWYRQAPGKERELVAAITRNGGRTYYADSVKGRFTISRDNAKNTVYLQMNSLIPEDTAGYYCAAPGLYSRLDYWGQGTQVTVSS”, the “polyreactivity (PSR sort gate)” value was “high polyreactivity”.

For the sequence “QVHLVESGGGLVQAGGSLRLTCAASGSTFASNVMGWYRQAPGKERELVAAISRRGTRTNYADSVKGRFTISLDNAKNTVYLQMKSLKPEDTAVYYCNTASGTNVVYEFGYWGQGTQVTVSS”, the “polyreactivity (PSR sort gate)” value is “high polyreactivity”.

Consider “QVHLVESGGGLVQAGGSLSLSCAASGRNFRAYAMGWYRQAPGKETEFVAAISRSGGSTYYADSVKGRFTISRDYAKNTVYLQMHSLKPVDTAVYYCAARVRYPYRYYYWGQGTQVTVSS”, for which the “polyreactivity (PSR sort gate)” value is recorded as “high polyreactivity”.

Regarding “QVHLVESGGGLVQAGGSRRLSCAASGRIFSRYTMGCYRQAPGKERELVAVNTSGGSTNYADSVKGRFTISRDNAKNTVYLQMNSLKPEDTAVYYCNAVRFTYGGYLRRYDYWGQGTQVTVSS”, the “polyreactivity (PSR sort gate)” value is reported as “high polyreactivity”.

For “QVHLVESGGGLVQAGRSLRFSCAASGSIFGVNTMGWYRQAPGKERELDAGISSSGSSTYYADSVKGRFTISRDNAKNTVYLQMNSLKPEDTAVYDCAVRPRYYSTNMDSWGQGTQVTVSS”, the “polyreactivity (PSR sort gate)” value is “low polyreactivity”.

As for “QVHLVESGGGLVQAGRTLRLICAASGFIFWRNTMGWYRQAPGKERELVAVITRGGSTYYADSVKGRFTLSRDNAKNTGYLQMNSLKPEDTAVYYCAARNDYYKTFSGYDYWGQGTQVTVSS”, the “polyreactivity (PSR sort gate)” value was “low polyreactivity”.

Consider “QVHLVESGGGLVQARGSLRLSCAASGITFRYYTMGLYRQAPVKERELVAVISWSGGSTYYADSVKGRFTISRDNAKNTVYFQMNSLKPEDTAVYYCAAVRRISRYDYWGQGTQVTVSS”, for which the “polyreactivity (PSR sort gate)” value is reported as “high polyreactivity”.

As to “QVHLVESGGGLVQARGSLRLSCAASGSTIYSYARGWYRQAPGKERELVAAINRSAGSTYYADSVKGRFTISRDNAKNTVYLQMTSLKPEDTAVYYCAAYASRSYGDWGQGTQVTVSS”, the “polyreactivity (PSR sort gate)” value is “high polyreactivity”.

Turning to “QVHLVESGGGLVQARGTRRLSCAASGYTFPRYTMGWYRQAPGKERELVAAISGSSGSTYYADSVTGRFTISRDNATNTVYLQLNSLKPEDTAVYYCNKYYGFHKIKEYDYWGQGTQGTVSS”, the “polyreactivity (PSR sort gate)” value was “high polyreactivity”.

Take “QVHLVESGGGLVQAVVSLRLSCAASGTTFVSYAMGWYRHATGKERELVAGISWSGTRTYYADSVKGRFTISRDNAMNTVYLQMNSLKPEDSAVYYCNAVYIYNYRTLDYWGQGTQVTVSS”: the “polyreactivity (PSR sort gate)” value was “high polyreactivity”.

As to “QVHLVESGGGLVQPGGSLRLSCAASGSTFQTYAMVWYRQAPGKERELVAAITSGGSTNYADSVKGRFTISRDNAKNTVYLQMNSVYPEVTAVYFCAVRQIYQTSDHRLQYDYWGQGTQVTVSS”, the “polyreactivity (PSR sort gate)” value is listed as “low polyreactivity”.

For “QVHLVESGGGVVQAGGSLRLSCAASGRIFHRYEMGWYRQAPVKERELVAAINWRTGNTYYADSVKGRFTISRDNAKNTVYLQMNSLKAEDTAVYYCNARYRSDYWGIQYDYWGQGTQVTVSS”, the “polyreactivity (PSR sort gate)” value is reported as “high polyreactivity”.

In the case of “QVHLVESGGPLVQAGGSLRLSCAASGRIFQINAMVWYRQAPGKERELVAGITGSGGSTDYADSVKGRFTISRDKSKNTVYLQMNSLKPEDTAVYYCAADTYTDGYDYWGQGTQVTVSS”, the “polyreactivity (PSR sort gate)” value is listed as “low polyreactivity”.

For “QVHLVESGGVLVQAGGSLRLSCAAYGSTFSWNAMGWYRQSPWKESELVAPITTRGGSTYYADSVKGRFTISRDNAQNTVYLEMNSLKPEDTAVYDCAASYGYRGGWGPGVDYWGQCTQVTVSS”, the “polyreactivity (PSR sort gate)” value was “low polyreactivity”.

Consider “QVHLVESGRGLFQAGGSLRLSCAASGRIFPGYAMGWSRQAPGKESELVAGITWRTARTYYAYSVKGRFTISRDIAKNTVYLQMNSLKPEDTAVYYCAAKYARYGRDVIFDYWGQGTEVTVSS”, for which the “polyreactivity (PSR sort gate)” value is “high polyreactivity”.

With “QVHLVESGRGLLQAGGSLRLSCAPSGRTFGVYSMGWYSQAPGKERELVAAISWSGDRTYYADSVKGRFTISRDYAKNTVYLQMNSLKPEDPALDYAEYHGAKYDYWGQGTQVTVSS”, the “polyreactivity (PSR sort gate)” value was “high polyreactivity”.

Values taken from the nanobody polyreactivity screen of Harvey et al. (2022).
